Results from patent publication US20110110857.
Changes are numbered by the printed parent chain. Names may count otherwise.

B1: wild type C. muridarum HtrA (TC0210) (protein)
chain: SPMLGYSAPKKDSSTGICLAASQSDRELSQEDLLKEVSRGFSKVAAQATPGVVYIENFPKTGSQAIASPGNKRGFQENPFDYFNDEFFNRFFGLPSHREQPRPQQRDAVRGTGFIVSEDGYVVTNHHVVEDAGKIHVTLHDGQKYTAKIIGLDPKTDLAVIKIQAKNLPFLTFGNSDQLQIGDWSIAIGNPFGLQATVTVGVISAKGRNQLHIVDFEDFIQTDAAINPGNSGGPLLNIDGQVIGVNTAIVSGSGGYIGIGFAIPSLMAKRVIDQLISDGQVTRGFLGVTLQPIDSELAACYKLEKVYGALITDVVKGSPAEKAGLRQEDVIVAYNGKEVESLSALRNAISLMMPGTRVVLKVVREGKFIEIPVTVTQIPAEDGVSALQKMGVRVQNLTPEICKKLGLASDTRGIFVVSVEAGSPAASAGVVPGQLILAVNRQRVSSVEELNQVLKNAKGENVLLMVSQGEVIRFVVLKSDE
B2: TC0210-(H143R) (protein)
chain: B1 chain with H127R
B3: wild-type C. trachomatis HtrA (CT823) (protein)
chain: SPMLGYSASKKDSKADICLAVSSGDQEVSQEDLLKEVSRGFSRVAAKATPGVVYIENFPKTGNQAIASPGNKRGFQENPFDYFNDEFFNRFFGLPSHREQQRPQQRDAVRGTGFIVSEDGYVVTNHHVVEDAGKIHVTLHDGQKYTAKIVGLDPKTDLAVIKIQAEKLPFLTFGNSDQLQIGDWAIAIGNPFGLQATVTVGVISAKGRNQLHIVDFEDFIQTDAAINPGNSGGPLLNINGQVIGVNTAIVSGSGGYIGIGFAIPSLMAKRVIDQLISDGQVTRGFLGVTLQPIDSELATCYKLEKVYGALVTDVVKGSPAEKAGLRQEDVIVAYNGKEVESLSALRNAISLMMPGTRVVLKIVREGKTIEIPVTVTQIPTEDGVSALQKMGVRVQNITPEICKKLGLAADTRGILVVAVEAGSPAASAGVAPGQLILAVNRQRVASVEELNQVLKNSKGENVLLMVSQGDVVRFIVLKSDE

Assays:
[1] = target: C. muridarum Major Outer Membrane Protein (MOMP)
[2] = target: bovine serum albumin, P02769
bovine serum albumin, P02769, sequence (P02769 25-607): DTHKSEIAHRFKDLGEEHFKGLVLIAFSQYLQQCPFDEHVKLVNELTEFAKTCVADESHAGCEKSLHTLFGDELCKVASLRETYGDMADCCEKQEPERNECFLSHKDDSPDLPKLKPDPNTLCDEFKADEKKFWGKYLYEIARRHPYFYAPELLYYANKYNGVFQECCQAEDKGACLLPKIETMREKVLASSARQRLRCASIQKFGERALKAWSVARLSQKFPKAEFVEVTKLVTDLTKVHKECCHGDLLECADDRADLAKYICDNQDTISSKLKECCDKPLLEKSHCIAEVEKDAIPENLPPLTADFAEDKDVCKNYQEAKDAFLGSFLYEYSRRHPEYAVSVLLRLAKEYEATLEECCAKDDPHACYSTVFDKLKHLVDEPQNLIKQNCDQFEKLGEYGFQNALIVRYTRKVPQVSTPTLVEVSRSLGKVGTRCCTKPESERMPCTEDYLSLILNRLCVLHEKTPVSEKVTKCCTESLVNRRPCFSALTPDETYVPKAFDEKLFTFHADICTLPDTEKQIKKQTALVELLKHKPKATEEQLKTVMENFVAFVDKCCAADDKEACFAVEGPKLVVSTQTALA

Protein	protease digestion of MOMP, SDS-PAGE/Coomassie, with DTT [1]	protease digestion of MOMP, SDS-PAGE/Coomassie, without DTT [1]	protease digestion of BSA, SDS-PAGE/Coomassie, with DTT [2]	protease digestion of MOMP, SDS-PAGE/Coomassie, with and without DTT [1]	protease digestion of BSA, overnight at 37 C, SDS-PAGE/Coomassie, with DTT [2]
B1	completely degrades MOMP protein in the presence of DTT (lane 7)	strongly degrades MOMP protein in the absence of DTT (lane 5)	possesses a strong protease activity as it degrades the BSA substrate (lane 5)	–	–
B2	–	–	does not degrade the BSA substrate (lane 3)	does not degrade the MOMP protein, either in the presence of DTT (lane 8) or in the absence of DTT (lane 6)	–
B3	–	–	–	–	strong protease activity in the presence of the reducing agent DTT (dithiothreitol) as shown by degradation of the intact BSA protein
